Data on 23 substances can be found in US11505576B2, “Polypeptides based on a scaffold” (AFFIBODY AB, priority 2018, dated 2022).

The target of data set [1] is T1, insulin (Homo sapiens, UniProt P01308).
T1 construct: purchased Roche 1376497
Briefly: Kinetic analysis using surface plasmon resonance (Biacore T200), immobilized insulin. Type of data set: binding. On the procedure:
Kinetic constants (ka and kd) and affinities (KD) were determined for His6-tagged Y variants using a Biacore T200 instrument (GE Healthcare). Target proteins C4, IL-6 and insulin, respectively, were immobilized in separate flow cells on the carboxylated dextran layer of different CM5 chip surfaces (GE Healthcare). Immobilization was performed using amine coupling chemistry according to the manufacturer's protocol and PBS pH 7.4 supplemented with 0.1 Tween20 (PBST 0.1%) as running buffer. The ligand immobilization levels on the surfaces were 3280-8830 RU for C4, 495-1184 RU for IL-6, and 270-282 RU for insulin. One flow cell surface on each chip was activated and deactivated for use as blank during analyte injections. In the kinetic experiment, PBST 0.1% was used as running buffer at a flow rate of 30 μl/min. The analytes, i.e. Y variants, were each diluted in PBST 0.1 buffer at concentrations of 1000, 500, 100, 50 and 10 nM and injected for 5 min, followed by dissociation in running buffer for 3 min. After dissociation, the surfaces were regenerated with one injection of 30 μl 10 mM HCl. Kinetic constants were calculated from the sensorgrams using the Langmuir 1:1 model of Biacore T200 Evaluation software 2.0 (GE Healthcare).
(§1) Produced Y variants were subjected to CD and SPR analyses according to the methods described in Example 1.
(§2) The Y variants were cloned, produced and characterized according to the general methods described in Example 1. Produced Y variants with point mutations and/or N-terminal or C-terminal extensions were subjected to CD and SPR analyses as described in Example 1.
(§3) Produced Y variants were subjected to CD and SPR analyses according to the methods described in Example 1. In addition, CD spectra of selected IL-6 binding variants were also recorded at 60, 70, 80 and 90° C.
(§4) The Y variants were cloned, produced and characterized according to the general methods described in Example 1. Produced Y variants with point mutations were subjected to CD and SPR analyses as described in Example 1. In addition, CD spectra of the IL-6 binding variants were also recorded at 60, 70, 80 and 90° C.

The nature of data set [2]: Circular dichroism spectroscopy analysis (CD spectra, variable temperature measurement, refolding). Type of data set: physicochemical. On the procedure: The respective Y variant was diluted to 0.5 mg/ml in PBS. A CD spectrum at 250-195 nm was obtained at 20° C. In addition, a variable temperature measurement (VTM) was performed to determine the melting temperature (Tm). In the VTM, absorbance was measured at 221 nm while the temperature was raised from 20° C. to 90° C. with a temperature gradient of 5° C./min. A new CD spectrum was obtained at 20° C. after the heating procedure, in order to study the refolding ability of the Y variants. The CD measurements were performed on a Jasco J-810 spectropolarimeter (Jasco Scandinavia AB) using a cell with an optical path length of 1 mm.
as §1, §2, §3, §4

The nature of data set [3]: Fraction of soluble product on expression in E. coli, estimated from SDS-PAGE. Format: physicochemical. Conditions: for Est soluble fraction: Table 9, mutation study 5. How it is done:
E. coli T7E2 cells were transformed with plasmids containing the gene fragment of each respective Y variant. The resulting recombinant strains were generally cultivated in media supplemented with 50 μg/ml kanamycin at 30-37° C. in 50 ml scale using the EnPresso protocol (Enpresso GmbH). In order to induce protein expression, isopropyl-β-D-1-thiogalactopyranoside (IPTG) was added to a final concentration of 0.5 mM at an optical density at 600 nm (OD600) of approximately 10. After induction, the cultures were incubated for 16 h. The cells were harvested by centrifugation. Alternatively, the culture was performed at 37° C. in 980 ml of TSB-YE medium (tryptic soy broth 30 g/l supplemented with yeast extract 5 g/l) supplemented with 50 μg/ml kanamycin, and protein expression induced with 0.2 mM IPTG at OD600=2, followed by incubation for 5 h before harvesting of the cells by centrifugation. The total yield as well as the fraction of soluble and insoluble product of the respective Y variant was estimated based on SDS-PAGE analysis.

[4] abbreviates: Table 3, mutation study 1, MGSSHHHHHHGSS-[Y#####].
[5] abbreviates: Table 4, mutation study 2, MGSSHHHHHHGSS-[Y#####].
Where [6] appears, read: Table 7, MGSSHHHHHHGSS-[Y#####]-A.
Setting [7] is: Table 7, Ylib002Naive.I selection, MGSSHHHHHHGSS-[Y#####]-A.
[8] abbreviates: Table 8, mutation study 4, MGSSHHHHHHGSS-[Y#####].
Where [9] appears, read: Table 9, mutation study 5, MGSSHHHHHHGSS-[Y#####]-A.

T1 sequence (P01308 25-54 limits assumed): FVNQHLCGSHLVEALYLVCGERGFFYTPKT
T1 sequence (P01308 90-110 limits assumed): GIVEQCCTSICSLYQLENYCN

In data set [1] (setting [4]), “Y00272: insulin binding Y variant, Y00032 with A28G, SEQ ID NO:119 (LAEAKEAAIAELDSKGVGAYQKSFIELGKSVEHVELLKEAILADLP; Engineered insulin binding Y variant)” came in with a dissociation constant Kd of 110 nM. Moreover, the Tm in data set [2] (setting [4]) was 34 °C.

“Y00274: insulin binding Y variant, Y00032 with E35Q, SEQ ID NO:121 (LAEAKEAAIAELDSKGVGAYQKSFIELAKSVEHVQLLKEAILADLP; Engineered insulin binding Y variant)”: in data set [1] (setting [4]), the dissociation constant Kd came to 56 nM. For the same substance, in data set [2] (setting [4]), the Tm came out at 53 °C.

As for “Y00275: insulin binding Y variant, Y00032 with E39Q, SEQ ID NO:122 (LAEAKEAAIAELDSKGVGAYQKSFIELAKSVEHVELLKQAILADLP; Engineered insulin binding Y variant)”, in data set [1] (setting [4]), the dissociation constant (Kd) came out at 59 nM. In addition, in data set [2] (setting [4]), the Tm was 54 °C.

As to “Y00276: insulin binding Y variant, Y00032 with A43K, SEQ ID NO:123 (LAEAKEAAIAELDSKGVGAYQKSFIELAKSVEHVELLKEAILKDLP; Engineered insulin binding Y variant)”, in data set [1] (setting [4]), the Kd stood at 76 nM. Also, the Tm in data set [2] (setting [4]) came out at 50 °C.

“Y00292: insulin binding Y variant, Y00032 with S23K + E35Q + E39Q, SEQ ID NO:124 (LAEAKEAAIAELDSKGVGAYQKKFIELAKSVEHVQLLKQAILADLP; Engineered insulin binding Y variant)” displayed a dissociation constant Kd in data set [1] (setting [5]) of 450 nM. The Tm in data set [2] (setting [5]) was 57 °C.

With “Y00293: insulin binding Y variant, Y00270 with E35Q + E39Q, SEQ ID NO:125 (LAEAKEAAIAELDSKGVGAYQIKFIELAKSVEHVQLLKQAILADLP; Engineered insulin binding Y variant)”, in data set [1] (setting [5]), the Kd is 490 nM. In data set [2] (setting [5]), the Tm was found to be 56 °C.

With “Y00294: insulin binding Y variant, Y00270 with E35Q + A43K, SEQ ID NO:126 (LAEAKEAAIAELDSKGVGAYQIKFIELAKSVEHVQLLKEAILKDLP; Engineered insulin binding Y variant)”, the Kd in data set [1] (setting [5]) is 490 nM. The Tm in data set [2] (setting [5]) was found to be 54 °C.

Consider “Y00295: insulin binding Y variant, Y00270 with E35Q + E39Q + A43K, SEQ ID NO:127 (LAEAKEAAIAELDSKGVGAYQIKFIELAKSVEHVQLLKQAILKDLP; Engineered insulin binding Y variant)”, for which the affinity in data set [1] (setting [5]), expressed as Kd, was 580 nM. For the same substance, the Tm in data set [2] (setting [5]) was 52 °C.

In data set [1] (setting [6]), “Y00299: insulin binding Y variant from Ylib002Naive.I, SEQ ID NO:132 (LAEAKEAAIAELDSKGVGAYQIKFIQVAKTVEQVQILKQAILADLPA; Engineered insulin binding Y variant)” displayed a Kd of 6.5 nM, a ka of 310000 M⁻¹ s⁻¹ and a kd of 0.002 s⁻¹. Also, in data set [2] (setting [6]), the Tm is 56 °C. Further, the Estimated soluble fraction in data set [3] (setting [7]) is given as 75%.

For “Y00356: insulin binding Y variant, SEQ ID NO:140, template of mutation study 4 (LAEAKEAAIAELDSKGVGAKYIKMIQHAHYVEVVQWLKQAILAHLP; Engineered insulin binding Y variant)”, the Tm in data set [2] (setting [8]) amounted to 57 °C. In data set [3] (setting [8]), the Estimated soluble fraction was 43%.

As to “Y02310: C4 binding Y variant from Ylib002Naive.I, SEQ ID NO:36 (LAEAKEAAIAELDSKGVGADLIKKIQYADTVEGVQFWKQEILAWLPA; Engineered C4 binding Y variant)”, in data set [2] (setting [6]), the Tm is 56 °C. For the same substance, the Estimated soluble fraction in data set [3] (setting [7]) is on record as 100%.

Regarding “Y02674: insulin binding Y variant, Y00356 with K15Y, SEQ ID NO:146 (LAEAKEAAIAELDSYGVGAKYIKMIQHAHYVEVVQWLKQAILAHLP; Engineered insulin binding Y variant)”, the Tm in data set [2] (setting [8]) stood at 55 °C. The Estimated soluble fraction in data set [3] (setting [8]) is 40%.

As to “Y02676: insulin binding Y variant, Y00356 with Q26E, SEQ ID NO:147 (LAEAKEAAIAELDSKGVGAKYIKMIEHAHYVEVVQWLKQAILAHLP; Engineered insulin binding Y variant)”, the Tm in data set [2] (setting [8]) was 56 °C. For the same substance, in data set [3] (setting [8]), the Estimated soluble fraction is listed as 55%.

Take “Y02683: insulin binding Y variant, Y00356 with I9L, SEQ ID NO:148 (LAEAKEAALAELDSKGVGAKYIKMIQHAHYVEVVQWLKQAILAHLP; Engineered insulin binding Y variant)”: the Estimated soluble fraction in data set [3] (setting [8]) was 92%.

With “Y02685: C4 binding Y variant, Y00792 with I9L, SEQ ID NO:40 (LAEAKEAALAELDSKGVGADLIKKIQQASSVEGVQFWKQEILAQLPA; Engineered C4 binding Y variant)”, the Tm in data set [2] (setting [9]) worked out at 53 °C. Also, the Est soluble fraction in data set [3] (MGSSHHHHHHGSS-[Y#####]-A) is given as 100%.

Consider “Y02686: C4 binding Y variant, Y00792 with K15Y, SEQ ID NO:41 (LAEAKEAAIAELDSYGVGADLIKKIQQASSVEGVQFWKQEILAQLPA; Engineered C4 binding Y variant)”, for which the Tm in data set [2] (setting [9]) was determined as 59 °C. Moreover, the Est soluble fraction in data set [3] (MGSSHHHHHHGSS-[Y#####]-A) is 100%.

Regarding “Y02687: C4 binding Y variant, Y00792 with Q26E, SEQ ID NO:42 (LAEAKEAAIAELDSKGVGADLIKKIEQASSVEGVQFWKQEILAQLPA; Engineered C4 binding Y variant)”, the Tm in data set [2] (setting [9]) came to 57 °C. For the same substance, the Est soluble fraction in data set [3] (MGSSHHHHHHGSS-[Y#####]-A) is 100%.

As for “Y02688: C4 binding Y variant, Y02330 with I9L, SEQ ID NO:43 (LAEAKEAALAELDSKGVGAELIKKIQHAESVEGVQFWKQEILAYLPA; Engineered C4 binding Y variant)”, in data set [2] (setting [9]), the Tm amounted to 50 °C. In data set [3] (MGSSHHHHHHGSS-[Y#####]-A), the Est soluble fraction is 100%.

Consider “Y02689: C4 binding Y variant, Y02330 with K15Y, SEQ ID NO:44 (LAEAKEAAIAELDSYGVGAELIKKIQHAESVEGVQFWKQEILAYLPA; Engineered C4 binding Y variant)”, for which the Tm in data set [2] (setting [9]) amounted to 53 °C. The Est soluble fraction in data set [3] (MGSSHHHHHHGSS-[Y#####]-A) is 100%.

“Y02690: C4 binding Y variant, Y02330 with Q26E, SEQ ID NO:45 (LAEAKEAAIAELDSKGVGAELIKKIEHAESVEGVQFWKQEILAYLPA; Engineered C4 binding Y variant)”: the Tm in data set [2] (setting [9]) was 53 °C. Moreover, in data set [3] (MGSSHHHHHHGSS-[Y#####]-A), the Est soluble fraction is given as 100%.

“Y02691: C4 binding Y variant, Y00792 with K15Y Q26E, SEQ ID NO:46 (LAEAKEAAIAELDSYGVGADLIKKIEQASSVEGVQFWKQEILAQLPA; Engineered C4 binding Y variant)”: the Tm in data set [2] (setting [9]) worked out at 58 °C. For the same substance, in data set [3] (MGSSHHHHHHGSS-[Y#####]-A), the Est soluble fraction is reported as 100%.

With “Y02692: C4 binding Y variant, Y02309 with K15Y Q26E, SEQ ID NO:47 (LAEAKEAAIAELDSYGVGADLIKKIEKAESVEGVQFWKQEILATLPA; Engineered C4 binding Y variant)”, the Tm in data set [2] (setting [9]) is 57 °C. Further, the Est soluble fraction in data set [3] (MGSSHHHHHHGSS-[Y#####]-A) was 100%.

Turning to “Y02693: C4 binding Y variant, Y02330 with K15Y Q26E, SEQ ID NO:48 (LAEAKEAAIAELDSYGVGAELIKKIEHAESVEGVQFWKQEILAYLPA; Engineered C4 binding Y variant)”, the Tm in data set [2] (setting [9]) turned out to be 52 °C. Also, the Est soluble fraction in data set [3] (MGSSHHHHHHGSS-[Y#####]-A) is 100%.
